From patent US20250375497A1 (UNIVERSITY OF VIRGINIA PATENT FOUNDATION, published 2025)

Biological target: T1, Myc-tagged barley CslF6 (barley (Hordeum vulgare subsp. vulgare))
T1 construct: also called Myc-tagged CslF6 species; not shown: Myc tag
T1 chain: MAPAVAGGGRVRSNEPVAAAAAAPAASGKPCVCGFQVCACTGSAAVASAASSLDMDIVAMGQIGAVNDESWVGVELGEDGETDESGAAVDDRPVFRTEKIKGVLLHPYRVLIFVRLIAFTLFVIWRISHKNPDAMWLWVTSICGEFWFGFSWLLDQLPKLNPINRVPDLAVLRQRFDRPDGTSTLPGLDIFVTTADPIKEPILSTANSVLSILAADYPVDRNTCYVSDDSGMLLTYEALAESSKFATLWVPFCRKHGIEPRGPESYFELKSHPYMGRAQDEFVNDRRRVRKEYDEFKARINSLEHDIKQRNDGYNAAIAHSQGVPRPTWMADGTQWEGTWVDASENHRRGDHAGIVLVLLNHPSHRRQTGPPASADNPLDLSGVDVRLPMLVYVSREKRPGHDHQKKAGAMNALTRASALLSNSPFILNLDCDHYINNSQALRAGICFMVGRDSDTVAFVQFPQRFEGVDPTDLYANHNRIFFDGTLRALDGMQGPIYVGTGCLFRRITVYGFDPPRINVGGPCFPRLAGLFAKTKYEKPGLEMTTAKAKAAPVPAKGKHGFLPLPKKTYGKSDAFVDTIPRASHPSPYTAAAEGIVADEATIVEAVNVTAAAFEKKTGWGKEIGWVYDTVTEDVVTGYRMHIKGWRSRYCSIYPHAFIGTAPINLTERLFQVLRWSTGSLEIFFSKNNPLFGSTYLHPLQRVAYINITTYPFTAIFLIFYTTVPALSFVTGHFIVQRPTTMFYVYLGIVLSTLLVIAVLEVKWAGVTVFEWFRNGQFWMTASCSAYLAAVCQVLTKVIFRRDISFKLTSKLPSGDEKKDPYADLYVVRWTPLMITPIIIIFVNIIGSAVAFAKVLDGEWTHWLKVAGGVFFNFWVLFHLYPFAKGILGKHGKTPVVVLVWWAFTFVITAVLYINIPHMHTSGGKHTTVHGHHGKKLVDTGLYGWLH
Assay: co-purification of His- and Myc-tagged CslF6

B1: barley (Hordeum vulgare) cellulose synthase-like CslF6 with N-terminal 12xHis tag (enzyme)
chain: MAPAVAGGGRVRSNEPVAAAAAAPAASGKPCVCGFQVCACTGSAAVASAASSLDMDIVAMGQIGAVNDESWVGVELGEDGETDESGAAVDDRPVFRTEKIKGVLLHPYRVLIFVRLIAFTLFVIWRISHKNPDAMWLWVTSICGEFWFGFSWLLDQLPKLNPINRVPDLAVLRQRFDRPDGTSTLPGLDIFVTTADPIKEPILSTANSVLSILAADYPVDRNTCYVSDDSGMLLTYEALAESSKFATLWVPFCRKHGIEPRGPESYFELKSHPYMGRAQDEFVNDRRRVRKEYDEFKARINSLEHDIKQRNDGYNAAIAHSQGVPRPTWMADGTQWEGTWVDASENHRRGDHAGIVLVLLNHPSHRRQTGPPASADNPLDLSGVDVRLPMLVYVSREKRPGHDHQKKAGAMNALTRASALLSNSPFILNLDCDHYINNSQALRAGICFMVGRDSDTVAFVQFPQRFEGVDPTDLYANHNRIFFDGTLRALDGMQGPIYVGTGCLFRRITVYGFDPPRINVGGPCFPRLAGLFAKTKYEKPGLEMTTAKAKAAPVPAKGKHGFLPLPKKTYGKSDAFVDTIPRASHPSPYTAAAEGIVADEATIVEAVNVTAAAFEKKTGWGKEIGWVYDTVTEDVVTGYRMHIKGWRSRYCSIYPHAFIGTAPINLTERLFQVLRWSTGSLEIFFSKNNPLFGSTYLHPLQRVAYINITTYPFTAIFLIFYTTVPALSFVTGHFIVQRPTTMFYVYLGIVLSTLLVIAVLEVKWAGVTVFEWFRNGQFWMTASCSAYLAAVCQVLTKVIFRRDISFKLTSKLPSGDEKKDPYADLYVVRWTPLMITPIIIIFVNIIGSAVAFAKVLDGEWTHWLKVAGGVFFNFWVLFHLYPFAKGILGKHGKTPVVVLVWWAFTFVITAVLYINIPHMHTSGGKHTTVHGHHGKKLVDTGLYGWLH
notes: Expressed in Sf9 insect cells and purified in detergent (LMNG/CHS, then GDN); also called HvCslF6; His-tagged CslF6; not shown: N-terminal 12xHis tag
B1: no binding.
